The text below walks through data of article PMC5426085 (Frontiers in Microbiology, 2017).

One series deals with FtsZ (SaFtsZ) (Staphylococcus aureus, UniProt P0A031). The experiment in a line: GTPase assay (phosphate release), […]° light scattering polymerization, TEM, far-UV CD with recombinant purified FtsZ. Format: biochemical. The settings on record: read-out: % inhibition of GTPase at 8 μg/mL (~15 μM).
Series [1] concerns the molecule itself. The experiment in a line: 90° light scattering of polymerization; FtsZ 6 μM in 20 mM Tris pH 7.4, 0.01% Triton X-100; started with 20 mM KCl, 5 mM MgCl2, 1 mM GTP; 37°C; 600 nm; without and with compound 1 (1 to 6 μg/mL); self-assembly into polymers.

Take `CN1/C(=C/c2cc(/C=C/c3ccc(O)cc3)[n+](C)c3ccccc23)Sc2ccccc21` [compound 1, 2-((E)-4-hydroxystyryl)-1-methyl-4-((Z)-(3-methylbenzo[d]thiazol-2(3H)-ylidene)methyl)quinolin-1-ium iodide]: on FtsZ (SaFtsZ), the inhibition at 8 µg/mL was determined as 58%.

B1: E. coli FtsZ (natural protein, UniProt P0A9A6 1-383, looked up)
chain: MFEPMELTNDAVIKVIGVGGGGGNAVEHMVRERIEGVEFFAVNTDAQALRKTAVGQTIQIGSGITKGLGAGANPEVGRNAADEDRDALRAALEGADMVFIAAGMGGGTGTGAAPVVAEVAKDLGILTVAVVTKPFNFEGKKRMAFAEQGITELSKHVDSLITIPNDKLLKVLGRGISLLDAFGAANDVLKGAVQGIAELITRPGLMNVDFADVRTVMSEMGYAMMGSGVASGEDRAEEAAEMAISSPLLEDIDLSGARGVLVNITAGFDLRLDEFETVGNTIRAFASDNATVVIGTSLDPDMNDELRVTVVATGIGMDKRPEITLVTNKQVQQPVMDRYQQHGMAPLTQEQKPVAKVVNDNAPQTAKEPDYLDIPAFLRKQAD
notes: cell division protein FtsZ, Escherichia coli; also called EcFtsZ; source: recombinant; cloned, overexpressed, and purified as described previously (Sun et al., 2014; Li et al., 2015)
Take B1: the binding result in series [1] is “binds”.

B2: Staphylococcus aureus FtsZ (natural protein, UniProt P0A031 1-390, looked up)
chain: MLEFEQGFNHLATLKVIGVGGGGNNAVNRMIDHGMNNVEFIAINTDGQALNLSKAESKIQIGEKLTRGLGAGANPEIGKKAAEESREQIEDAIQGADMVFVTSGMGGGTGTGAAPVVAKIAKEMGALTVGVVTRPFSFEGRKRQTQAAAGVEAMKAAVDTLIVIPNDRLLDIVDKSTPMMEAFKEADNVLRQGVQGISDLIAVSGEVNLDFADVKTIMSNQGSALMGIGVSSGENRAVEAAKKAISSPLLETSIVGAQGVLMNITGGESLSLFEAQEAADIVQDAADEDVNMIFGTVINPELQDEIVVTVIATGFDDKPTSHGRKSGSTGFGTSVNTSSNATSKDESFTSNSSNAQATDSVSERTHTTKEDDIPSFIRNREERRSRRTRR
notes: cell division protein FtsZ, Staphylococcus aureus; also called SaFtsZ; filamenting temperature-sensitive mutant Z; source: recombinant; cloned, overexpressed, and purified as described previously (Sun et al., 2014; Li et al., 2015)
Turning to B2, the binding result in series [1] is reported as “binds”.
